# Laboratory results published in US12312397B2, “Anti-O2 antibodies and uses thereof” (priority 2016, dated 2025).
# Numbering of substitutions follows the chain as printed. Numbers in names are those of the source.
# B1: KPS18: Class III anti-O2 antigen human mAb; VH SEQ ID NO: 98, VL SEQ ID NO: 99 (antibody, V domains shown)
# VH: EVRLVESGGGLVKPGGSLRLSCAASGFTFKNAWMSWIRQAPGKGLEWVGRVKNEVDGGTIDYGVPVRGRFTISRDDSQGTLSLEMNSLREDDTGIYYCRAFWSGFPAGYWGQGTLVSVSS
# VL: QSVLTQPPSLSAAPGQTVTIACSGSRSNIGSDSVSWFQQFPGTAPRVLMYDNNKRPSGISDRFSGSKSGTSVTLDITGLQTGDEADYYCATWDSSLSAYVFGSGTKVTVL
# modifications: Description of Artificial Sequence: SyntheticKPS18 VH polypeptide; Description of Artificial Sequence: SyntheticKPS18 VL polypeptide
# B2: KPS3: Class III anti-O2 antigen human mAb; VH SEQ ID NO: 35, VL SEQ ID NO: 36 (antibody, V domains shown)
# VH: QGQLVDSGGGVVQRGGSQRLSCAASGFSFRDYGMHWVRQAPGKGLEWVAFISYDGRDQYYADSVKGRFIISRDNSKNTLSLQMNSLRPEDTAVYYCGPFYNPSLYYPPWGHGLPVIVSS
# VL: EVVLTQSPATLSLSPGERATLSCRASQSISSQLAWYQQKPGQAPRLLIHDASNRDTGVPDRFSGSGSGTDFTLTISSLEPEDFAMYYCLQRNNWPPWTFGQGTKVEIK
# modifications: Description of Artificial Sequence: SyntheticKPS3 VH polypeptide; Description of Artificial Sequence: SyntheticKPS3 VL polypeptide
# B3: antibody C: sequence-optimized KPN179, all frameworks germlined; VH SEQ ID NO: 188, VL SEQ ID NO: 191 (antibody, V domains shown)
# VH: EVQLVESGGGLVKPGGSLRLSCAASGFTFSNAWMNWVRQAPGKGLEWVGRIKRKADGETTDYAAPVKGRFTISRDDSKNTLYLQMNSLKTEDTAVYYCTTRIVTTNDYWGQGTLVTVSS
# VL: QSALTQPRSVSGSPGQSVTISCTGTSSDVGYYDYVSWYQQHPGKAPKLMIYDVNKRPSGVPDRFSGSKSGNTASLTISGLQAEDEADYYCASYAGGDTFVFGTGTKVTVL
# modifications: Description of Artificial Sequence: SyntheticKPN179-FR-GL N35S-VH/KPN179-FR-GL-C105A-VL VHpolypeptide; Description of Artificial Sequence: SyntheticKPN179-FR-GL N35S-VH/KPN179-FR-GL-C105A-VL VL polypeptide
# B4: antibody A: sequence-optimized KPN42, all frameworks germlined; VH SEQ ID NO: 26, VL SEQ ID NO: 27 (antibody, V domains shown)
# VH: B3 VH with S30N, N31D, R53K, A55H, D56E, E58V
# VL: B3 VL with Y31A, T98I
# modifications: Description of Artificial Sequence: SyntheticKPN42-FR-GL-VH/KPN42-FR-GL-C105A-VL VH polypeptide; Description of Artificial Sequence: SyntheticKPN42-FR-GL-VH/KPN42-FR-GL-C105A-VL VL polypeptide
# B5: antibody B: sequence-optimized KPN42; VH SEQ ID NO: 17, VL SEQ ID NO: 18 (antibody, V domains shown)
# VH: EVQLVESGGGLVKPGGSLRLSCAASGFTFNDAWMNWVRQAPGKGLEWVGRIKKKHEGVTTDYPASVRGRFTISRDDSKNTVYLQMGRLRIEDTAIYYCTTRIVTTNDYWGQGTLVTVSS
# VL: B3 VL with Y31A, T98I
# modifications: Description of Artificial Sequence: SyntheticKPN42-v2016 VH polypeptide; Description of Artificial Sequence: SyntheticKPN42-v2016 VL polypeptide
# B6: antibody D: sequence-optimized KPN179; VH SEQ ID NO: 187, VL SEQ ID NO: 190 (antibody, V domains shown)
# VH: B3 VH with A63P, P65S, I72V, L81I, V95I
# VL: B3 VL
# modifications: Description of Artificial Sequence: SyntheticKPN179-FR-1-2-4-GL N35S-VH/KPN179-FR-GL-C105A-VL VHpolypeptide; Description of Artificial Sequence: SyntheticKPN179-FR-1-2-4-GL N35S-VH/KPN179-FR-GL-C105A-VL VLpolypeptide
# B7: 6F6: Class I mouse hybridoma anti-O2 mAb (Ms IgM); VH SEQ ID NO: 80, VL SEQ ID NO: 81 (antibody, V domains shown)
# VH: QVHLQQSGSELRSPGSSVKLSCKDFDSDVFPIAYMGWIRQQPGHGFDWIGDILPNIGRTIYGEKFEDKATLDADTVSNTAYLELSSLTSEDSAIYYCARRGTSGAMDYWGQGTSVTVSS
# VL: DVVMTQTPLFLPVSLGDQASISCRSSQGLVHSTGNTFLHWYLQKPGQSPKLLIYKVSNRFSGVPDRFSGSGSGTDFTLKISRVEAEDLGIYFCSQSTHIPYTFGGGTKLEIK
# modifications: Description of Artificial Sequence: Synthetic6F6 VH polypeptide; Description of Artificial Sequence: Synthetic6F6 VL polypeptide
# Columns and labels:
# O2 LPS = assay: ELISA binding to O2 LPS; design: species or system Klebsiella pneumoniae; conditions: for binding to LPS-O2: secondary screening, ELISA; for binding to O2 LPS compared to parent antibody: sequence-optimized variants, FIG. 9
# Method: The coated plates were incubated with cell culture supernatants from polyclonally stimulated lymphocytes (AMVBRA) or from monoclonal immortalized B cells (donor interrogations) containing fully human antibodies or with diluted plasma samples (PBMC donor selections) for 1 hour at room temperature. The plates were then washed with PBS containing 0.1% Tween-20 (PBS-T). Secondary antibody was added; either Alkaline Phosphatase-conjugated Goat Anti-Human IgG-AP (Southern Biotech, 2040-04, 1:1000 in PBS-B) or Peroxidase AffiniPure F(ab′)2 Fragment Goat Anti-Human IgG, Fc Fragment Specific (Jackson ImmunoResearch #309 036 098, 1:5000 in PBS-B) were used. Secondary antibodies were typically incubated for 1 h. Plates were washed three times with PBS-T, and P-NitroPhenyl Phosphate (pNPP, Sigma-Aldrich, cat #N2765-100TAB) or Sureblue (KPL, 53-00-03) substrates were added and incubated for 10 min or until the development of a colorimetric reaction. In the case of the HRP substrate Sureblue, the reaction was stopped by adding an equal volume of 0.2N HCl. The absorbance at 405 nm (pNPP) or 450 nm (Sureblue) was measured by a microplate reader (Biotek, Elx808).
# The coated plates were incubated with serial dilutions of the monoclonal antibodies for 1 hour at room temperature. The plates were then washed with PBS containing 0.1% Tween-20 (PBS-T). Alkaline Phosphatase-conjugated Goat Anti-Human IgG (Southern Biotech, 2040-04, 1:1000 in PBS-B) was added. The secondary antibody reactions were incubated for 1 h. Plates were washed three times with PBS-T, and P-NitroPhenyl Phosphate (pNPP, Sigma-Aldrich, cat #N2765-100TAB) substrate was added and incubated for 30 min or until the development of a colorimetric reaction. The absorbance at 405 nm was measured by a microplate reader (Biotek, Elx808). The data was plotted with Graphpad Prism software. Representative mAbs from each class were tested for their binding to O1 LPS (FIG. 2A) and O2 LPS (FIG. 2B), and EC50 values were obtained (FIG. 2C). The majority of the anti-O2 LPS mAbs bound to both O1 and O2 LPS by ELISA. […] None of these LPS mAbs bound to the 03, 04, 05, 07, or 012 LPS serotypes (see e.g., FIG. 1A).
# [1] = tested on: O1 LPS activation of NF-κB in RAW264.7-lux cells; assay: LPS neutralization assay (NF-κB luciferase, RAW264.7-lux), O1 LPS; type: cell-based, murine; conditions: human IgG1 format
# Method: (§1) Activation of TLR4 receptors by bacterial LPS leads to downstream activation of the NF-κB transcriptional regulator. A decrease in induction of NF-κB-responsive luciferase activity was used to quantify LPS neutralization activity by LPS mAbs. A murine RAW264.7 macrophage cell line was engineered to carry a firefly luciferase reporter gene under the control of an NF-κB-responsive promoter (RAW264.7-lux). Serially diluted antibody stocks were mixed with LPS in a 1:1 ratio and incubated at 4° C. for 1 hr. Antibody/LPS mixtures were then diluted 1:10 into assay plates containing pre-seeded RAW264.7-lux cells (4e5 cells/well), which were then placed at 37° C. with 5% CO2 for 2.5 hours. Following incubations, Steady Glo solution (Promega) was added to each well and incubated for another 20 min protected from light. The relative light units (RLUs) were measured using a multi-mode microplate reader (Synergy 2, Biotek or envision multilabel plate reader, Perkin Elmer). The percentage of inhibition was determined by comparing RLU derived from assays with no antibodies to RLU derived from assays with anti-K. pneumoniae mAbs and assays performed with a negative control mAb. […] All mAbs were tested in human IgG1 format.
# [2] = tested on: K. pneumoniae 8570ΔcpsBLux (O2); assay: Opsonophagocytic killing (OPK) assay, O2 capsule mutant; type: cell-based, Klebsiella pneumoniae; design: key to D Capsule OPK O2: +++: Strongly positive activity; +: Positive activity; +/−: Somewhat positive depending upon the test conditions; conditions: for D Capsule OPK O2: capsule mutant strain 8570ΔcpsB lux (O2); for OPK activity against O2 capsule mutant: secondary screening
# Method: OPK activity of anti-O2 LPS mAbs was tested against O1 and O2 strains. Briefly, log phase cultures of luminescent K. pneumoniae strains 8570ΔcpsBLux (O2) and 43816ΔcpsBLux (O1) were diluted to ˜2×10^6 cells/ml. K. pneumoniae cells, 5e5/well dimethylformamide (DMF) differentiated HL-60 cells, cleared baby rabbit serum (1:10 Cedarlane), and a series dilution of antibodies (2 ng-2.5 μg/mL) were mixed in 96-well plates and incubated at 37° C. for two hours with shaking (250 rpm). The relative light units (RLUs) were then measured using a multi-mode microplate reader (Synergy 2, Biotek or envision multilabel plate reader, Perkin Elmer). The percentage of killing was determined by comparing RLU derived from assays with no antibodies to RLU derived from assays with anti-K. pneumoniae mAbs and assays performed with a negative control mAb. Positive killing was determined where the percentage of killing is above 40%.
# [3] = tested on: O2 LPS activation of NF-κB in RAW264.7-lux cells; assay: LPS neutralization assay (NF-κB luciferase, RAW264.7-lux), O2 LPS; type: cell-based, murine; design: key to LPS Neut O2: +++: Strongly positive activity; +: Positive activity; +/−: Somewhat positive depending upon the test conditions; conditions: for LPS Neut O2: Table 7 summary; for neutralizing activity against O2 LPS (NF-κB activation): human IgG1 format; for neutralization of LPS-O2: secondary screening
# Method: as §1
molecule,measurement,setting,value
B1,binding to LPS-O2,O2 LPS,bound specifically
same,neutralizing activity against O1 LPS (NF-κB activation),[1],no activity
same,D Capsule OPK O2,[2],+++
same,OPK activity against O2 capsule mutant,[2],strong OPK activity
same,LPS Neut O2,[3],+/−
same,neutralizing activity against O2 LPS (NF-κB activation),[3],moderate neutralizing activity
same,neutralization of LPS-O2,[3],neutralized
B2,binding to LPS-O2,O2 LPS,bound specifically
same,neutralizing activity against O1 LPS (NF-κB activation),[1],no activity
same,D Capsule OPK O2,[2],+++
same,OPK activity against O2 capsule mutant,[2],strong OPK activity
same,LPS Neut O2,[3],+/−
same,neutralizing activity against O2 LPS (NF-κB activation),[3],moderate neutralizing activity
same,neutralization of LPS-O2,[3],neutralized
B3,binding to O2 LPS compared to parent antibody,O2 LPS,significantly reduced binding
B4,binding to O2 LPS compared to parent antibody,O2 LPS,comparable binding
B5,binding to O2 LPS compared to parent antibody,O2 LPS,comparable binding
B6,binding to O2 LPS compared to parent antibody,O2 LPS,comparable binding
B7,D Capsule OPK O2,[2],+
